The source of these data is patent US20170298096A1 (CANIMGUIDE THERAPEUTICS, published 2017).

The test has as its target T1, His-tagged P3028 (human, not fully specified).
T1 construct: the tag is put first after 'PGE73=His-tag-P3028'; also called PGE73; not shown: His-tag
T1 peptide: {His‑tag}-VFDEFKPLVEEPQNLIK
Briefly: chip ELISA.

No end group written: not given here.

B1: P28R F13E (peptide)
peptide: KKLDTFFVKLSLETER
B1 had an ELISA signal of 98.

B2: P28R F13H (peptide)
peptide: KKLDTFFVKLSLHTER
For B2, the ELISA signal amounted to 1050.

B3: P28R K9L (peptide)
peptide: KKLDTFFVLLSLFTER
Regarding B3, the ELISA signal worked out at 166.

B4: P28R K1A (peptide)
peptide: AKLDTFFVKLSLFTER
B4 gave an ELISA signal of 466.

B5: P28R K9M (peptide)
peptide: KKLDTFFVMLSLFTER
In turn, B5 came in with an ELISA signal of 283.

B6: P28R F13Q (peptide)
peptide: KKLDTFFVKLSLQTER
B6 came in with an ELISA signal of 1140.

B7: P28R K2A (peptide)
peptide: KALDTFFVKLSLFTER
B7 gave an ELISA signal of 309.

B8: P28R K1Y (peptide)
peptide: YKLDTFFVKLSLFTER
B8 displayed an ELISA signal of 315.

B9: P28R K9W (peptide)
peptide: KKLDTFFVWLSLFTER
In turn, B9 returned an ELISA signal of 245.

B10: P28R K1F (peptide)
peptide: FKLDTFFVKLSLFTER
For B10, the ELISA signal was 332.

B11: P28R F13M (peptide)
peptide: KKLDTFFVKLSLMTER
For the molecule B11, the ELISA signal was 1190.

B12: P28R K9I (peptide)
peptide: KKLDTFFVILSLFTER
Turning to B12, the ELISA signal is 190.

B13: P28R K9H (peptide)
peptide: KKLDTFFVHLSLFTER
B13 returned an ELISA signal of 306.

B14: P28R K2L (peptide)
peptide: KLLDTFFVKLSLFTER
For B14, the ELISA signal worked out at 343.

B15: P28R F13V (peptide)
peptide: KKLDTFFVKLSLVTER
The molecule B15 returned an ELISA signal of 446.

B16: P28R K2T (peptide)
peptide: KTLDTFFVKLSLFTER
With B16, the ELISA signal was found to be 331.

B17: P28R F13W (peptide)
peptide: KKLDTFFVKLSLWTER
The molecule B17 registered an ELISA signal of 430.

B18: P28R K2H (peptide)
peptide: KHLDTFFVKLSLFTER
The molecule B18 yielded an ELISA signal of 394.

B19: P28R K1V (peptide)
peptide: VKLDTFFVKLSLFTER
In the case of B19, the ELISA signal is 442.

B20: P28R K2Y (peptide)
peptide: KYLDTFFVKLSLFTER
Take B20: the ELISA signal was 301.

B21: P28R K9Y (peptide)
peptide: KKLDTFFVYLSLFTER
As for B21, the ELISA signal came out at 198.

B22: P28R K1S (peptide)
peptide: SKLDTFFVKLSLFTER
In turn, B22 gave an ELISA signal of 344.

B23: P28R K1H (peptide)
peptide: HKLDTFFVKLSLFTER
On to B23, for which the ELISA signal was found to be 428.

B24: P28R F13T (peptide)
peptide: KKLDTFFVKLSLTTER
On to B24, for which the ELISA signal was 494.

B25: P28R K2F (peptide)
peptide: KFLDTFFVKLSLFTER
In turn, B25 had an ELISA signal of 390.

B26: P28R F13N (peptide)
peptide: KKLDTFFVKLSLNTER
Take B26: the ELISA signal amounted to 862.

B27: P28R K1T (peptide)
peptide: TKLDTFFVKLSLFTER
Regarding B27, the ELISA signal is 493.

B28: P28R K1E (peptide)
peptide: EKLDTFFVKLSLFTER
As to B28, the ELISA signal is 396.

B29: P28R K9N (peptide)
peptide: KKLDTFFVNLSLFTER
In turn, B29 gave an ELISA signal of 256.

B30: P28R K1I (peptide)
peptide: IKLDTFFVKLSLFTER
B30: the ELISA signal is 483.

B31: P28R K1W (peptide)
peptide: WKLDTFFVKLSLFTER
The molecule B31 had an ELISA signal of 284.

B32: P28R K2V (peptide)
peptide: KVLDTFFVKLSLFTER
B32 displayed an ELISA signal of 317.

B33: P28R F13Y (peptide)
peptide: KKLDTFFVKLSLYTER
B33 returned an ELISA signal of 291.

B34: P28R K1R (peptide)
peptide: RKLDTFFVKLSLFTER
For B34, the ELISA signal was 523.

B35: P28R F13K (peptide)
peptide: KKLDTFFVKLSLKTER
B35 came in with an ELISA signal of 220.

B36: P28R K2W (peptide)
peptide: KWLDTFFVKLSLFTER
In turn, B36 returned an ELISA signal of 304.

B37: P28R K9D (peptide)
peptide: KKLDTFFVDLSLFTER
B37 came in with an ELISA signal of 149.

B38: P28R K9V (peptide)
peptide: KKLDTFFVVLSLFTER
The molecule B38 had an ELISA signal of 248.

B39: P28R K9A (peptide)
peptide: KKLDTFFVALSLFTER
The molecule B39 gave an ELISA signal of 191.

B40: P28R K9Q (peptide)
peptide: KKLDTFFVQLSLFTER
Consider B40, for which the ELISA signal was 330.

B41: P28R K1D (peptide)
peptide: DKLDTFFVKLSLFTER
For the molecule B41, the ELISA signal amounted to 373.

B42: P28R L3E (peptide)
peptide: KKEDTFFVKLSLFTER
For B42, the ELISA signal was found to be 528.

B43: P28R K2M (peptide)
peptide: KMLDTFFVKLSLFTER
The molecule B43 had an ELISA signal of 400.

B44: P28R K1N (peptide)
peptide: NKLDTFFVKLSLFTER
Consider B44, for which the ELISA signal is 445.

B45: P28R K1Q (peptide)
peptide: QKLDTFFVKLSLFTER
For the molecule B45, the ELISA signal was 455.

B46: P28R K2E (peptide)
peptide: KELDTFFVKLSLFTER
For B46, the ELISA signal turned out to be 349.

B47: P28R F13R (peptide)
peptide: KKLDTFFVKLSLRTER
Consider B47, for which the ELISA signal was found to be 502.

B48: P28R K9F (peptide)
peptide: KKLDTFFVFLSLFTER
Molecule B48 registered an ELISA signal of 174.

B49: P28R K9R (peptide)
peptide: KKLDTFFVRLSLFTER
For the molecule B49, the ELISA signal worked out at 374.

B50: P28R K9T (peptide)
peptide: KKLDTFFVTLSLFTER
Consider B50, for which the ELISA signal was 347.

B51: P28R K2R (peptide)
peptide: KRLDTFFVKLSLFTER
For B51, the ELISA signal was 417.

B52: P28R K1M (peptide)
peptide: MKLDTFFVKLSLFTER
B52 returned an ELISA signal of 457.

B53: P28R K9E (peptide)
peptide: KKLDTFFVELSLFTER
Regarding B53, the ELISA signal came to 240.

B54: P28R K9S (peptide)
peptide: KKLDTFFVSLSLFTER
Molecule B54 returned an ELISA signal of 274.

B55: P28R L3A (peptide)
peptide: KKADTFFVKLSLFTER
The molecule B55 gave an ELISA signal of 427.

B56: P28R F13I (peptide)
peptide: KKLDTFFVKLSLITER
Molecule B56 had an ELISA signal of 468.

B57: P28R K2Q (peptide)
peptide: KQLDTFFVKLSLFTER
Molecule B57 gave an ELISA signal of 350.

B58: P28R K2S (peptide)
peptide: KSLDTFFVKLSLFTER
Take B58: the ELISA signal is 281.

B59: P28R K2N (peptide)
peptide: KNLDTFFVKLSLFTER
B59: the ELISA signal was determined as 432.

B60: P28R L3D (peptide)
peptide: KKDDTFFVKLSLFTER
Turning to B60, the ELISA signal was 492.

B61: P28R K1L (peptide)
peptide: LKLDTFFVKLSLFTER
Molecule B61 showed an ELISA signal of 449.

B62: P28R F13L (peptide)
peptide: KKLDTFFVKLSLLTER
Molecule B62 yielded an ELISA signal of 448.

B63: P28R F13S (peptide)
peptide: KKLDTFFVKLSLSTER
Molecule B63 displayed an ELISA signal of 635.

B64: P28R K2D (peptide)
peptide: KDLDTFFVKLSLFTER
On to B64, for which the ELISA signal worked out at 335.

B65: P28R K2I (peptide)
peptide: KILDTFFVKLSLFTER
The molecule B65 had an ELISA signal of 331.
